Source: US20140017242A1, “ANTI-BRADYKININ B2 RECEPTOR (BKB2R) MONOCLONAL ANTIBODY” (Diamedica, Inc., priority 2010, published 2014)

Assays:
HT-29 = assay: MTT Cell Proliferation Assay, HT-29; format: cell-based, human; conditions: 120 hours of exposure
Description: This Example describes characterization of the cytotoxic activity of herein described anti-BKB2R monoclonal antibodies against a panel of cancer cell lines. BxPC-3 is a human adenocarcinoma cell line originally isolated from the pancreas (pancreatic cancer) (ATCC # CRL-1687; Tan et al., Cancer Invest. 4: 15-23, 1986. PubMed: 3754176). MV-4-11 is a human biphenotypic B myelomonocytic leukemia (mixed-lineage leukemia, MLL-AF4) cell line originally isolated from the peripheral blood (ATCC # CRL-959; Lange et al., Blood 70: 192-199, 1987. PubMed: 3496132). Hep G2 is a human hepatocellular carcinoma cell line isolated from the liver (liver cancer) (ATCC # HB-8065; Aden et al., Nature 282: 615-616, 1979. PubMed: 233137). RS4;11 is a human acute lymphoblastic leukemia (mixed-lineage leukemia, MLL-AF4) cell line isolated from the bone marrow (ATTC # CRL-1873) Stong et al., Blood 65: 21-31, 1985. PubMed: 3917311). HT-29 is a human colorectal adenocarcinoma (ATTC # HTB-38) cell line isolated from the colon (colon cancer). Fogh et al., J. Natl. Cancer Inst. 58: 209-214, 1977. PubMed: 833871). NUGC-4 is a human stomach carcinoma isolated from the stomach paragastiric lymph node (JCRB # JCRB0834; Akiyama et al., Jpn. J. Surg., 18: 438-446, 1988). […]
The anti-proliferative activity of test compounds against the indicated cell lines was evaluated in vitro using the ATCC's MTT Cell Proliferation Assay (Catalog No. 30-1010K). After the 120 hour incubation with drug (e.g., anti-BKB2R mAb or cisplatin), cell proliferation was measured by addition of MTT reagent to each well and incubation for an additional 4 hrs. […] Optical absorbance (570 nm) of the test wells was measured and then quantitated relative to control wells that received no drug. Results were expressed as percent inhibition versus compound concentration and graphed, as shown in FIGS. 19-25, for cell lines BxPC-3, MV-4;11, HepG2, RS-4;11, HT-29, NUGC-4, and PC-3, respectively.

ZDF fa/fa rats [1] = assay: 21-day ZDF fa/fa study: serum total cholesterol and triglyceride; format: in vivo, rat; conditions: day 21
Protocol: (§1) Animals. Male ZDF fa/fa rats were obtained from CRL (Kingston, N.Y.). Upon arrival, rats were seven weeks of age. The rats were housed individually per cage in a room with a photo cycle of 12 hours of light and 12 hours of dark and an ambient temperature of 70-72° F. and fed on regular rodent diet and water ad libitum. At the age of eleven weeks, rats were divided into six groups (Table 5) of eight rats per group based on fasting blood glucose levels. A sub-group of four rats per group was maintained in parallel to the main groups and was dosed similarly for twenty-one days for a hyperinsulinemic-euglycemic clamp study. […]
(§2) An oral glucose tolerance test (OGTT) was performed on Day 0, 7, 14 and 21 for each group of the study. Plasma samples were collected at each time point during OGTT to also measure insulin levels. Body weight, food and water intake were measured twice a week. Blood pressure and heart rates were monitored on Day 0, 7, 14 and 21 using a non-invasive tail cuff method (with five readings per rat taken and then averaged). Fasting serum samples were collected on Day 0, 7, 14 and 21 before OGTT for determination of triglyceride and total cholesterol level. Urine samples were collected on Day 7 and 14 for the determination of glycosuria. Glycated (Glycosylated) hemoglobin (HbA1c) was measured at the end of the study. Assay kits for these studies were as presented in Table 6, and were used according to the suppliers' instructions.
(§3) The mean change in fasting blood glucose (mg/dL), serum cholesterol (mg/dL) and systolic blood pressure (mm Hg) from baseline (Day 0) to Day 21 was compared between the high-dose (5F12G1, 0.2 mg/kg) and negative control (MG2b-57, 0.2 mg/kg) groups using an analysis of covariance to adjust for baseline levels. The mean HbA1c percentage in high-dose (5F12G1, 0.2 mg/kg) rats was compared to the mean HbA1c percentage for negative control (MG2b-57, 0.2 mg/kg) rats using an unequal-variance, independent two-sample t-test. A significance level of a=0.05 was used for all tests, and all analyses were conducted using SAS statistical software (vs. 9.2, Cary, N.C., U.S.A.).

ZDF fa/fa rats [2] = assay: 21-day ZDF fa/fa study: fasting blood glucose; format: in vivo, rat; conditions: for fasting blood glucose level: day 21
Protocol: as §1, §2
Fasting blood glucose levels were measured on Day 0, 7, 14 and 21.
as §3

B1: 5F12G1: murine monoclonal anti-BKB2R antibody (IgG2b,κ), VH comprising SEQ ID NO:1, VL comprising SEQ ID NO:2 (antibody, listed as Mus musculus, V domains shown)
VH: EVKLEESGGGLVQPGGSMKLSCVVSGFTFSDYWMSWVRHSPEMGLEWVAEIRLKSDNYATHYAESVKGRFTISRDDSKSRLYLQINSLRGEDTGIYYCTRDYYAMEYWGQGTSVTVSS
VL: DVVMTQTPLSLPVSLGDQASISCRSSQTIVHSNGKTYLEWYLQKPGQSPKLLIYKVSNRFSGVPDRFSGSGSGTEFTLKISRVETEDLGVYYCFQASHVPYTFGGGTKLEIK
HT-29
  EC 50 Values (ng/ml) HT-29: 16000 ng/mL
ZDF fa/fa rats [1]; 0.008 mg/kg s.c. every 3 days
  serum cholesterol: 167 ± 7 mg/dL
ZDF fa/fa rats [1]; 0.04 mg/kg s.c. every 3 days
  serum cholesterol: 162 ± 18 mg/dL
ZDF fa/fa rats [1]; 0.2 mg/kg s.c. every 3 days
  decrease of serum cholesterol from baseline: 12 ± 8 mg/dL
  serum cholesterol: 145 ± 26 mg/dL
ZDF fa/fa rats [2]; 0.2 mg/kg s.c. every 3 days, Day 0 to Day 21
  increase of fasting blood glucose from baseline: 33.1 ± 19.7 mg/dL
ZDF fa/fa rats [2]; 0.2 mg/kg s.c. every 3 days, baseline 117.6+/−14.2 (5F12G1), 116.5+/−25.8 (MG2b-57)
  fasting blood glucose level: approximately 150.8+/−56.5 mg/dl
ZDF fa/fa rats [2]; second of three values given respectively (0.04 mg/kg s.c. every 3 days)
  fasting blood glucose level: ~163 ± 21 mg/dL
ZDF fa/fa rats [2]; third of three values given respectively (0.008 mg/kg s.c. every 3 days)
  fasting blood glucose level: ~190 ± 40 mg/dL
